The assay has as its target OsBOR3_(∆1–642) (Oryza sativa). Briefly: cryo-EM structure; OsBOR3 (1 mg/mL) in 20 mM Tris (pH 7.5), 150 mM NaCl, 0.75x CMC LMNG on Quantifoil grids; 116,140 particles; 3D refinement with C2 symmetry imposed; 5-6 Å.

The values below come from article PMC8192573.

One may read the stoichiometry N as the number of molecules, sites or subunits per partner or assembly. The substance OsBOR3_(∆1–642) (domain or fragment) came in with a stoichiometry N of 2.
